# Patent publication US20130040882A1, “USE OF FIBROBLAST GROWTH FACTOR FRAGMENTS” (NOVARTIS AG, priority 2003, published 2013)
# Several values for one entry are separate records, joined by “and”; a condition that tells them apart may be missing. Equal values may be shown once. Read-outs that look alike come from different tables or passages of the source.
# Columns and labels:
# [1] = tested on: transcript levels in organs; type: in vivo, cynomolgus monkey
# [2] = tested on: Insulin-Like Growth Factor Binding Protein 2; assay: Serum determination of insulin-like growth factor binding protein 2 in FGF23CTP-treated monkeys; type: in vivo, cynomolgus monkey
# Method: At the end of the treatment period samples from all organs are subjected to snap freezing at necropsy and are analyzed with GeneChip® expression profiling.
# Serum levels were determined for IGFB2 and found to be decreased, in agreement with the decreased transcript levels in several organs, including the liver.
molecule,measurement,setting,value
"FGF23CTP: unique 75-mer COOH-terminal peptide of FGF-23, SEQ ID NO: 2 (peptide, listed as Homo sapiens) HTRSAEDDSERDPLNVLKPRARMTPAPASCSQELPSAEDNSPMASDPLGVVRGGRVNTHAGGTGPEGCRPFAKFI","Gene expression level after 2 weeks, mean: EGF-response factor 1",[1]; AV node,"1,819.7"
same,"Gene expression level after 2 weeks, mean: Endothelial differentiation receptor 6",[1]; AV node,306.9
same,"Gene expression level after 2 weeks, mean: FLT receptor tyrosine kinase 1",[1]; AV node,120.1
same,"Gene expression level after 2 weeks, mean: Insulin-like growth factor II",[1]; AV node,565.275
same,"Gene expression level after 2 weeks, mean: Insulin-like growth factor binding protein 2",[1]; AV node,880.75
same,"Gene expression level after 2 weeks, mean: Vascular endothelial growth factor-A (VEGFA)",[1]; AV node,363.7
same,"Gene expression level after 2 weeks, mean: Activin A receptor type II",[1]; Adrenal,58.5
same,"Gene expression level after 2 weeks, mean: Bone morphogenetic protein 1",[1]; Adrenal,210.6
same,"Gene expression level after 2 weeks, mean: Bone morphogenetic protein receptor, type II",[1]; Adrenal,101.25
same,"Gene expression level after 2 weeks, mean: Cdk-inhibitor 1A p21 (Cip1)",[1]; Adrenal,51.75
same,"Gene expression level after 2 weeks, mean: E2F-5",[1]; Adrenal,39.6
same,"Gene expression level after 2 weeks, mean: FGF receptor-1",[1]; Adrenal,624.2
same,"Gene expression level after 2 weeks, mean: FLK1 receptor tyrosine kinase",[1]; Adrenal,42.7
same,"Gene expression level after 2 weeks, mean: VE-cadherin",[1]; Adrenal,110.2
same,"Gene expression level after 2 weeks, mean: Colony-stimulating factor-1",[1]; B marrow,981.3
same,"Gene expression level after 2 weeks, mean: Insulin-like growth factor II",[1]; B marrow,209.5
same,"Gene expression level after 2 weeks, mean: Angiopoietin-1",[1]; Bone Marrow,123.2
same,"Gene expression level after 2 weeks, mean: Cyclin E2",[1]; Bone Marrow,257
same,"Gene expression level after 2 weeks, mean: E2F dimerization partner 2 (DP2)",[1]; Bone Marrow,1222
same,"Gene expression level after 2 weeks, mean: Endothelial differentiation receptor 4",[1]; Bone Marrow,494.8
same,"Gene expression level after 2 weeks, mean: Mdm2",[1]; Bone Marrow,20
same,"Gene expression level after 2 weeks, mean: TEK tyrosine kinase, angiopoietin receptor",[1]; Bone Marrow,52.7
same,"Gene expression level after 2 weeks, mean: Bone morphogenetic protein 2A",[1]; Duodenum,55.3
same,"Gene expression level after 2 weeks, mean: Cdk-inhibitor p57KIP2 (KIP2)",[1]; Duodenum,138.6
same,"Gene expression level after 2 weeks, mean: Cyclin I",[1]; Duodenum,900.6
same,"Gene expression level after 2 weeks, mean: FLT receptor tyrosine kinase 1",[1]; Duodenum,70.7
same,"Gene expression level after 2 weeks, mean: Farnesol receptor HRR-1",[1]; Duodenum,53.1
same,"Gene expression level after 2 weeks, mean: Cyclin-dependent kinase 5",[1]; Hippocampus,118.7
same,"Gene expression level after 2 weeks, mean: E2F-4",[1]; Hippocampus,153.4
same,"Gene expression level after 2 weeks, mean: Neuregulin 1",[1]; Hippocampus,86.075
same,"Gene expression level after 2 weeks, mean: Cyclin D3",[1]; Muscle,149.2
same,"Gene expression level after 2 weeks, mean: E2F-4",[1]; Muscle,643.8
same,"Gene expression level after 2 weeks, mean: Endothelial differentiation receptor 6",[1]; Muscle,181.9
same,"Gene expression level after 2 weeks, mean: Insulin-like growth factor I",[1]; Muscle,107.65
same,"Gene expression level after 2 weeks, mean: Placental growth factor",[1]; Muscle,91.4
same,"Gene expression level after 2 weeks, mean: Retinoid X receptor-gamma",[1]; Muscle,580.9
same,"Gene expression level after 2 weeks, mean: Transforming growth factor β2",[1]; Muscle,58.3
same,"Gene expression level after 2 weeks, mean: p53 binding protein",[1]; Muscle,138.7
same,"Gene expression level after 2 weeks, mean: Activin A receptor type II",[1]; ROHY,54.9
same,"Gene expression level after 2 weeks, mean: Angiopoietin-1",[1]; ROHY,162.5
same,"Gene expression level after 2 weeks, mean: Brain-specific angiogenesis inhibitor 1 (MAS5)",[1]; ROHY,225.1
same,"Gene expression level after 2 weeks, mean: Cdk-inhibitor p19",[1]; ROHY,267.8
same,"Gene expression level after 2 weeks, mean: Colony-stimulating factor-1",[1]; ROHY,802.5
same,"Gene expression level after 2 weeks, mean: Cyclin A/CDK2-associated p19 (Skp1)",[1]; ROHY,1069.6
same,"Gene expression level after 2 weeks, mean: Cyclin D2",[1]; ROHY,197.1
same,"Gene expression level after 2 weeks, mean: Cyclin-dependent kinase 4",[1]; ROHY,197.6
same,"Gene expression level after 2 weeks, mean: E2F-4",[1]; ROHY,245.9
same,"Gene expression level after 2 weeks, mean: EPHB2v protein-tyrosine kinase",[1]; ROHY,119.1
same,"Gene expression level after 2 weeks, mean: Epidermal growth factor receptor",[1]; ROHY,103.1
same,"Gene expression level after 2 weeks, mean: FGF receptor-1",[1]; ROHY,932.4
same,"Gene expression level after 2 weeks, mean: Growth differentiation factor 1",[1]; ROHY,"1,410.2"
same,"Gene expression level after 2 weeks, mean: RalGDS/AF-6 (inhibitor of Cyclin D1)",[1]; ROHY,300.5
same,"Gene expression level after 2 weeks, mean: Retinoblastoma 1",[1]; ROHY,467.9
same,"Gene expression level after 2 weeks, mean: Retinoblastoma binding protein 4",[1]; ROHY,164
same,"Gene expression level after 2 weeks, mean: Retinoid X receptor-beta",[1]; ROHY,106.925
same,"Gene expression level after 2 weeks, mean: S-phase response (cyclin-related)",[1]; ROHY,176
same,"Gene expression level after 2 weeks, mean: Transforming growth factor β3",[1]; ROHY,88.4
same,"Gene expression level after 2 weeks, mean: Tumour necrosis factor receptor-2",[1]; ROHY,126.4
same,"Gene expression level after 2 weeks, mean: VEGFB",[1]; ROHY,626.2
same,"Gene expression level after 2 weeks, mean: Vascular endothelial growth factor-A (VEGFA)",[1]; ROHY,326.175
same,"Gene expression level after 2 weeks, mean: p53 binding protein",[1]; ROHY,154.7
same,"Gene expression level after 2 weeks, mean: S-phase response (cyclin-related)",[1]; Re atrium,159.1
same,"Gene expression level after 2 weeks, mean: Activin A receptor type II",[1]; Retina,34.1
same,"Gene expression level after 2 weeks, mean: Brain-specific angiogenesis inhibitor 2",[1]; Retina,153.2
same,"Gene expression level after 2 weeks, mean: Cyclin D2",[1]; Retina,132
same,"Gene expression level after 2 weeks, mean: Insulin-like growth factor binding protein 2",[1]; Retina,807.9
same,"Gene expression level after 2 weeks, mean: Cdk-inhibitor p57KIP2 (KIP2)",[1]; Thymus,247.9
same,"Gene expression level after 2 weeks, mean: FGF receptor-1",[1]; Thymus,153.2
same,"Gene expression level after 2 weeks, mean: TNFR-related death receptor-3","[1]; cynomolgus monkey, in vivo",82.4
same,"Gene expression level after 2 weeks, mean: TNFR-related death receptor-6","[1]; cynomolgus monkey, in vivo",144.65 and 98.8
same,"Gene expression level after 2 weeks, mean: Bone morphogenetic protein 10",[1]; kidney,138.6
same,"Gene expression level after 2 weeks, mean: Colony-stimulating factor-1",[1]; kidney,659.75
same,"Gene expression level after 2 weeks, mean: E2F-1",[1]; kidney,198.5
same,"Gene expression level after 2 weeks, mean: E2F-4",[1]; kidney,741.6
same,"Gene expression level after 2 weeks, mean: Neuregulin 1",[1]; kidney,150.725
same,"Gene expression level after 2 weeks, mean: Bone morphogenetic protein 10",[1]; liver,134.1
same,"Gene expression level after 2 weeks, mean: EPHB2v protein-tyrosine kinase",[1]; liver,82.6
same,"Gene expression level after 2 weeks, mean: Endothelial differentiation receptor 4",[1]; liver,391.7
same,"Gene expression level after 2 weeks, mean: Farnesol receptor HRR-1",[1]; liver,383.3
same,"Gene expression level after 2 weeks, mean: Insulin-like growth factor I",[1]; liver,"1,055.4"
same,"Gene expression level after 2 weeks, mean: Insulin-like growth factor II",[1]; liver,606.9
same,"Gene expression level after 2 weeks, mean: Insulin-like growth factor binding protein 1",[1]; liver,"1,517"
same,"Gene expression level after 2 weeks, mean: Insulin-like growth factor binding protein 2",[1]; liver,"3,858.6"
same,"Gene expression level after 2 weeks, mean: 14-3-3 protein tau",[1]; rostral hypothalamus,"1,748.5"
same,"Gene expression level after 2 weeks, mean: Amyloid beta precursor protein (cytoplasmic tail)-binding protein 2",[1]; rostral hypothalamus,191.3
same,"Gene expression level after 2 weeks, mean: Anion exchanger",[1]; rostral hypothalamus,844.5
same,"Gene expression level after 2 weeks, mean: Axl",[1]; rostral hypothalamus,60.3
same,"Gene expression level after 2 weeks, mean: BAX",[1]; rostral hypothalamus,134.4
same,"Gene expression level after 2 weeks, mean: Bcl-2-binding protein Nip3",[1]; rostral hypothalamus,794.8
same,"Gene expression level after 2 weeks, mean: Bmi-1 homeobox gene repressor",[1]; rostral hypothalamus,374.7
same,"Gene expression level after 2 weeks, mean: CMP-sialic acid transporter",[1]; rostral hypothalamus,135.075
same,"Gene expression level after 2 weeks, mean: CREB binding protein",[1]; rostral hypothalamus,93
same,"Gene expression level after 2 weeks, mean: Ca2+-ATPase",[1]; rostral hypothalamus,174.4
same,"Gene expression level after 2 weeks, mean: Calcineurin A1",[1]; rostral hypothalamus,173.975
same,"Gene expression level after 2 weeks, mean: Cholecystokinin A receptor",[1]; rostral hypothalamus,196
same,"Gene expression level after 2 weeks, mean: Connexin 43",[1]; rostral hypothalamus,184.5
same,"Gene expression level after 2 weeks, mean: Delta 2 catenin",[1]; rostral hypothalamus,118
same,"Gene expression level after 2 weeks, mean: Erk3",[1]; rostral hypothalamus,409.5
same,"Gene expression level after 2 weeks, mean: FYN",[1]; rostral hypothalamus,958.1
same,"Gene expression level after 2 weeks, mean: GDP dissociation inhibitor beta",[1]; rostral hypothalamus,125.8
same,"Gene expression level after 2 weeks, mean: Glycogen synthase kinase 3",[1]; rostral hypothalamus,155.5
same,"Gene expression level after 2 weeks, mean: Hypoxia-inducible factor 1 alpha",[1]; rostral hypothalamus,286.5
same,"Gene expression level after 2 weeks, mean: Inhibitor of DNA binding 4",[1]; rostral hypothalamus,67.6
same,"Gene expression level after 2 weeks, mean: JNK2",[1]; rostral hypothalamus,79.9
same,"Gene expression level after 2 weeks, mean: Jagged 1",[1]; rostral hypothalamus,70.3
same,"Gene expression level after 2 weeks, mean: Janus kinase 1",[1]; rostral hypothalamus,43.3
same,"Gene expression level after 2 weeks, mean: Mnb (Minibrain)",[1]; rostral hypothalamus,446
same,"Gene expression level after 2 weeks, mean: Myelin oligodendrocyte glycoprotein",[1]; rostral hypothalamus,62.7
same,"Gene expression level after 2 weeks, mean: Myosin regulatory light chain",[1]; rostral hypothalamus,177.2
same,"Gene expression level after 2 weeks, mean: NIPSNAP2 (glioblastoma co-amplified)",[1]; rostral hypothalamus,118.7
same,"Gene expression level after 2 weeks, mean: Na,K-ATPase",[1]; rostral hypothalamus,"1,453.2"
same,"Gene expression level after 2 weeks, mean: Neural cell adhesion molecule 1",[1]; rostral hypothalamus,988.6
same,"Gene expression level after 2 weeks, mean: Neurofibromin",[1]; rostral hypothalamus,144
same,"Gene expression level after 2 weeks, mean: Oligodendrocyte myelin glycoprotein OMGP",[1]; rostral hypothalamus,773.5
same,"Gene expression level after 2 weeks, mean: PKR Interferon-inducible",[1]; rostral hypothalamus,128.25
same,"Gene expression level after 2 weeks, mean: Phosphodiesterase 4B",[1]; rostral hypothalamus,60.6
same,"Gene expression level after 2 weeks, mean: Phosphoinositide 3-kinase",[1]; rostral hypothalamus,241.5
same,"Gene expression level after 2 weeks, mean: Phosphoinositide-3-kinase, catalytic, delta polypeptide",[1]; rostral hypothalamus,241.5
same,"Gene expression level after 2 weeks, mean: Phospholipase C",[1]; rostral hypothalamus,72.1
same,"Gene expression level after 2 weeks, mean: Pim1",[1]; rostral hypothalamus,327.5
same,"Gene expression level after 2 weeks, mean: Pinin, Desmosome associated protein",[1]; rostral hypothalamus,119.7
same,"Gene expression level after 2 weeks, mean: RAB1",[1]; rostral hypothalamus,143.9
same,"Gene expression level after 2 weeks, mean: RAB5",[1]; rostral hypothalamus,809.8
same,"Gene expression level after 2 weeks, mean: RAB11A",[1]; rostral hypothalamus,344.9
same,"Gene expression level after 2 weeks, mean: RAB11B",[1]; rostral hypothalamus,71.2
same,"Gene expression level after 2 weeks, mean: RAS p21 protein activator",[1]; rostral hypothalamus,163
same,"Gene expression level after 2 weeks, mean: RNP24",[1]; rostral hypothalamus,558.2
same,"Gene expression level after 2 weeks, mean: Reticulon 4",[1]; rostral hypothalamus,"1,309.2"
same,"Gene expression level after 2 weeks, mean: Retinoic acid receptor",[1]; rostral hypothalamus,110
same,"Gene expression level after 2 weeks, mean: Ribosomal protein kinase B (RSK-B)",[1]; rostral hypothalamus,120
same,"Gene expression level after 2 weeks, mean: SFRS protein kinase 2",[1]; rostral hypothalamus,205.8
same,"Gene expression level after 2 weeks, mean: SNARE",[1]; rostral hypothalamus,55.4
same,"Gene expression level after 2 weeks, mean: STAT1",[1]; rostral hypothalamus,119.3
same,"Gene expression level after 2 weeks, mean: Sodium/hydrogen exchanger",[1]; rostral hypothalamus,785.5
same,"Gene expression level after 2 weeks, mean: Sphingomyelinase",[1]; rostral hypothalamus,259.5
same,"Gene expression level after 2 weeks, mean: TYRO3",[1]; rostral hypothalamus,163.1
same,"Gene expression level after 2 weeks, mean: TrkB",[1]; rostral hypothalamus,40.8
same,"Gene expression level after 2 weeks, mean: Tropomyosin 2 (beta)",[1]; rostral hypothalamus,131.6
same,"Gene expression level after 2 weeks, mean: Tropomyosin 4",[1]; rostral hypothalamus,140.6
same,"Gene expression level after 2 weeks, mean: c-abl",[1]; rostral hypothalamus,119.4
same,"Gene expression level after 2 weeks, mean: c-raf",[1]; rostral hypothalamus,327.5
same,"Gene expression level after 2 weeks, mean: c-yes",[1]; rostral hypothalamus,64.7
same,"Gene expression level after 2 weeks, mean: RalGDS/AF-6 (inhibitor of Cyclin D1)","[1]; second line, organ cell empty (below ROHY)",354.5
same,"Serum Insulin-Like Growth Factor Binding Protein 2, mean",[2]; 100 μg/day,893 ng/mL
same,"Serum Insulin-Like Growth Factor Binding Protein 2, conc","[2]; individual animals, 100 μg/day",987.6 ng/mL and 596.7 ng/mL and 749.5 ng/mL and 1239.8 ng/mL
same,Serum protein levels of circulating IGF2-binding protein,"[2]; treated animals, two weeks sc",decreased
